Measurements reported in patent US20160184446A1, “METHOD OF INHIBITING BODY CAVITY FLUID ACCUMULATION” (Toray Industries, Inc., priority 2012, published 2016).

Tested on: gastric cancer peritoneal metastasis mouse models (GCIY-EGFP cells)
Assay: Ascites accumulation in gastric cancer peritoneal metastasis mouse models, systemic (subcutaneous) administration
Assay type: in vivo
Details: subcutaneous (systemic), 5,000 U/mouse/dose, twice a week for 4 weeks; ascites collected 2 weeks after final administration; vs PBS control
Procedure: Gastric cancer peritoneal metastasis mouse models were produced by transplanting human gastric cancer cells, GCIY-EGFP cells, intraperitoneally into male KSN nude mice in the same manner as in Example 2.
Administration was initiated on the day after transplantation and performed twice a week for 4 weeks. Phosphate buffer (PBS) was administered to the control group in the same manner. Ascites was collected from the gastric cancer peritoneal metastasis mouse models under anesthesia 2 weeks after the final administration and the liquid volume was measured.
The vertical axis represents the amount of ascites (median; mL).

B1: PEG-mIFN-β: one PEG molecule with a molecular weight of 42,000 covalently bound to recombinant mouse interferon-β (conjugate, UniProt P01575 22-182, looked up)
Interferon beta: INYKQLQLQERTNIRKCQELLEQLNGKINLTYRADFKIPMEMTEKMQKSYTAFAIQEMLQNVFLVFRNNFSSTGWNETIVVRLLDELHQQTVFLKTVLEEKQEERLTWEMSSTALHLKSYYWRVQRYLKLMKYNSYAWMVVRAEIFRNFLIIRRLTRNFQN
modifications: 42 kDa PEG
- accumulation of ascites (amount of ascites): remarkably inhibited
